Test results as given in patent US20170368136A1.

Assays:
[1] = target: CaMKII; experiment: cell-based or functional assay
[2] = target: CaMKIV; experiment: cell-based or functional assay

Chain of CaMKII (chain, from a related filing, as listed by the source): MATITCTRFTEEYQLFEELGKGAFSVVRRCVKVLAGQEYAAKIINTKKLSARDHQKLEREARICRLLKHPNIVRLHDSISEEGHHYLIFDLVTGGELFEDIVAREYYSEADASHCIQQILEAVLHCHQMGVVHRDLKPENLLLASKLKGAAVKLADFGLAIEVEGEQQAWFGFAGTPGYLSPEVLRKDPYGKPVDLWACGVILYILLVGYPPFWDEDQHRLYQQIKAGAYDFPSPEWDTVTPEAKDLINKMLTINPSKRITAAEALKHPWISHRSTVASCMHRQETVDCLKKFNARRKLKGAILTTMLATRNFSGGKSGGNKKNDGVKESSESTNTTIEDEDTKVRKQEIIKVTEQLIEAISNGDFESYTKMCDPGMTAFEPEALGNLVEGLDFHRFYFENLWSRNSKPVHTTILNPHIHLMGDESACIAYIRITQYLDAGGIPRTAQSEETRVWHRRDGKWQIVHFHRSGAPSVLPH

Binder	IC50, phosphorylation of syntide 2 by CaMKII [1] [nM]	reduction of kinase activity in a kinase panel, 5 µM tatCN21 [2] [%]
KRPPKLGQIGRSKRVVIEDDR [CN21a]	100	–
YGRKKRRQRRRKRPPKLGQIGRSKRVVIEDDR (modifications not checked) [tatCN21]	–	35
